Data published in paper PMC9524831 (Science Advances, 2022).

Molecular target: HA-GluA1 (mouse AMPA receptor subunit GluA1) (mouse, UniProt P23818 19-907)
Assay: cell-based or functional assay

Sequence of HA-GluA1 (mouse AMPA receptor subunit GluA1) (P23818 19-907): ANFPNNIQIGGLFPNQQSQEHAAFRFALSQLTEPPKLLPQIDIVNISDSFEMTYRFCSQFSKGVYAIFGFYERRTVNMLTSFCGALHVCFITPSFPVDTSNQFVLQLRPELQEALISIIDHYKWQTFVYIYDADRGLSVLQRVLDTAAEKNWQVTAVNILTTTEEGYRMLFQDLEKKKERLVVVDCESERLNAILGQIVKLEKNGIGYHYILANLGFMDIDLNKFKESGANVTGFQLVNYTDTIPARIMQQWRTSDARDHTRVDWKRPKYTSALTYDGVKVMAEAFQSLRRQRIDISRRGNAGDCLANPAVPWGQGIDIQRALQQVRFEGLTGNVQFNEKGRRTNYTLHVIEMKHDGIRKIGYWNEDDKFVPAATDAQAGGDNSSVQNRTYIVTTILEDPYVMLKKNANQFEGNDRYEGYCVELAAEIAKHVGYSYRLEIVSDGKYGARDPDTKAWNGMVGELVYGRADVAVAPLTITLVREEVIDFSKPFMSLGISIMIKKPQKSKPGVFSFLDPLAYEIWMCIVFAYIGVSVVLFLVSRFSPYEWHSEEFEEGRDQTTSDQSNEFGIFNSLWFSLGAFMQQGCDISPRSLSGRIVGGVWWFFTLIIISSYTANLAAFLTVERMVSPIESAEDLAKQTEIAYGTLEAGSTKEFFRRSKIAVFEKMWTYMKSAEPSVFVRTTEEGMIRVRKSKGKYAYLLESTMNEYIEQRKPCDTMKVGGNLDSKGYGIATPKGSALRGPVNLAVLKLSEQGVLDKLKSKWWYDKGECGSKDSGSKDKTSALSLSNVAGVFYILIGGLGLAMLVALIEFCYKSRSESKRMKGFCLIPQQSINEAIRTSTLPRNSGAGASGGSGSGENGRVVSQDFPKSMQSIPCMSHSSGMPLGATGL

GluA1 polyubiquitination level relative to wild-type RNF220 transfection | Binder
0.34 | RNF220(R363Q) (enzyme, mouse, UniProt Q6PDX6 1-566, looked up) MDLHRAAFKMENSSYLPNPLASPALMVLASTAEASRDASIPCQQPRPFGVPVSVDKDVHIPFTNGSYTFASMYHRQGGVPGTFANRDFPPSLLHLHPQFAPPNLDCTPISMLNHSGVGAFRPFASTEDRESYQSAFTPAKRLKNCHDTESPHLRFSDADGKEYDFGTQLPSSSPGSLKVDDTGKKIFAVSGLISDRETSSSPEDRNDRCKKKAVALFDSQAPLCPICQVLLRPSELQEHMEQELEQLAQLPASKNSLLKDAMAPGTPKSLLLSASIKREGDSPTASPHSSATEDLHHSDRYQTFLRVRANRQTRLNARIGKMKRRKQDEGQREGSCMAEDDAVDIEHADSNRFEEYEWCGQKQIRATTLLEGGFRGSGFVMCSGKENPDSDADLDVDGDDTLEYGKPQYTEADVIPCTGEEPGEAKEREALRGAVLNGGPPSTRITPEFSKWASDEMPSTSNGEGSKQEAMQKTCKNSDIEKITEESAVTTFEALKARVRELERQLSRGDRYKCLICMDSYSMPLTSIQCWHVHCEECWLRTLGAKKLCPQCNTITAPGDLRRIYL
0.3 | RNF220(R365Q) (enzyme, mouse, UniProt Q6PDX6 1-566, looked up) MDLHRAAFKMENSSYLPNPLASPALMVLASTAEASRDASIPCQQPRPFGVPVSVDKDVHIPFTNGSYTFASMYHRQGGVPGTFANRDFPPSLLHLHPQFAPPNLDCTPISMLNHSGVGAFRPFASTEDRESYQSAFTPAKRLKNCHDTESPHLRFSDADGKEYDFGTQLPSSSPGSLKVDDTGKKIFAVSGLISDRETSSSPEDRNDRCKKKAVALFDSQAPLCPICQVLLRPSELQEHMEQELEQLAQLPASKNSLLKDAMAPGTPKSLLLSASIKREGDSPTASPHSSATEDLHHSDRYQTFLRVRANRQTRLNARIGKMKRRKQDEGQREGSCMAEDDAVDIEHADSNRFEEYEWCGQKRIQATTLLEGGFRGSGFVMCSGKENPDSDADLDVDGDDTLEYGKPQYTEADVIPCTGEEPGEAKEREALRGAVLNGGPPSTRITPEFSKWASDEMPSTSNGEGSKQEAMQKTCKNSDIEKITEESAVTTFEALKARVRELERQLSRGDRYKCLICMDSYSMPLTSIQCWHVHCEECWLRTLGAKKLCPQCNTITAPGDLRRIYL
